Assay results: the supplement of paper PMC7877785
± gives the uncertainty stated by the source.

Experiment: self-splicing fitness, log relative to wild type (ln ratio); higher = more splicing; Tetrahymena group I intron in knt gene, E. coli kanamycin selection, DiMSum; sequences stand for … in CUCUCU…GGAGGGAAAAGUUAUCAGGCAUGCACCUGGUAGCUAGUCUUUAAACCAAUAGAUUGCAUCGGUUUAAAAGGCAAGACCGUCAAAUUGCGGGAAAGGGGUCAACAGCCGUUCAGUACCAAGUCUCAGGGGAAACUUUGAGAUGGCCUUGCAAAGGGUAUGGUAAUAAGCUGACGGACAUGGUCCUAACCACGCAGCCAAGUCCUAAGUCAACAGAUCUUCUGUUGAUAUGGAUGCAGUUCACAGACUAAAUGUCGGUCGGGGAAGAUGUAUUCUUCUCAUAAGAUAUAGUCGGACCUCUCCUUAAUGGGAGCUAGCGGAUGAAGUGAUGCAACACUGGAGCCGCUGGGAACUAAUUUGUAUGCGAAAGUAUAUUGAUUAGUUUUGGAGUACUCGUGGUCG
In short: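 Colonies from six replicate transformations of E. coli BL21(DE3) were pooled and amplicon-sequenced on an Illumina HiSeq 2500. The library placed an intron with all eight P1ex-region nucleotides randomised inside the knt kanamycin-resistance gene on pET-22b(+), and cells grew overnight at 37°C or 30°C on LB agar with or without 25 μg/mL kanamycin (plus 100 μg/mL carbenicillin, 50 μM IPTG, 0.2% rhamnose). Fitness is the DiMSum error-weighted combination of wild-type-normalised replicate fold changes, kanamycin versus none.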

Sequence | self-splicing fitness (ln) (30 °C) | self-splicing fitness (ln) (37 °C)
GCGUAGCAAUAUUACGUUGA | -3.16 ± 0.33 | -1.94 ± 0.21
GCGUAGCAAUAUUACGUUUG | -3.14 ± 0.21 | -1.37 ± 0.15
GCUAAGCAAUAUUACGACAG | -2.67 ± 0.17 | -2.51 ± 0.32
GCUAAGCAAUAUUACGAUGC | -3.28 ± 0.19 | -2.18 ± 0.18
GCUAAGCAAUAUUACGAUUC | -0.0116 ± 0.081 | -0.128 ± 0.092
GCUAAGCAAUAUUACGCACG | -1.84 ± 0.14 | -0.0584 ± 0.14
GCUAAGCAAUAUUACGCAUU | -0.91 ± 0.065 | -0.163 ± 0.084
GCUAAGCAAUAUUACGCCAA | -2.35 ± 0.33 | -1.74 ± 0.41
GCUAAGCAAUAUUACGCCAC | -1.43 ± 0.35 | -2 ± 0.38
GCUAAGCAAUAUUACGCCCU | -0.606 ± 0.19 | -0.768 ± 0.15
GCUAAGCAAUAUUACGCCUU | -1.43 ± 0.11 | -0.0502 ± 0.14
GCUAAGCAAUAUUACGCGCU | -2.47 ± 0.16 | -1.57 ± 0.23
GCUAAGCAAUAUUACGCGGC | -0.424 ± 0.19 | -2.64 ± 0.5
GCUAAGCAAUAUUACGCUGA | -1.48 ± 0.18 | -1.02 ± 0.2
GCUAAGCAAUAUUACGCUUG | -3.24 ± 0.17 | -1.71 ± 0.18
GCUAAGCAAUAUUACGGUCG | -2.27 ± 0.11 | -1.34 ± 0.14
GCUAAGCAAUAUUACGGUGU | -2.48 ± 0.087 | -1.6 ± 0.1
GCUAAGCAAUAUUACGUCCA | -1.94 ± 0.32 | -0.684 ± 0.23
GCUAAGCAAUAUUACGUCCG | -1.53 ± 0.13 | -0.712 ± 0.15
GCUAAGCAAUAUUACGUCGC | -2.46 ± 0.19 | -2.55 ± 0.29
GCUAAGCAAUAUUACGUCUG | -1.84 ± 0.085 | -0.987 ± 0.096
GCUAAGCAAUAUUACGUUAA | -2.72 ± 0.16 | -1.74 ± 0.18
GCUAAGCAAUAUUACGUUCC | -1.14 ± 0.087 | -0.467 ± 0.14
GCUCAGCAAUAUUACGACUG | -2.66 ± 0.35 | 0.178 ± 0.19

Sequence | self-splicing fitness (ln) (30 °C) | self-splicing fitness (ln) (37 °C)
GCUCAGCAAUAUUACGAGCC | -3.98 ± 0.31 | -3.64 ± 0.39
GCUCAGCAAUAUUACGAGGA | -0.479 ± 0.12 | -0.741 ± 0.12
GCUCAGCAAUAUUACGAUUG | -2.83 ± 0.12 | -1.11 ± 0.12
GCUCAGCAAUAUUACGCAAU | -1.02 ± 0.078 | 0.487 ± 0.11
GCUCAGCAAUAUUACGCGGC | -3.83 ± 0.47 | -1.46 ± 0.26
GCUCAGCAAUAUUACGGCAG | -2.91 ± 0.22 | -2.82 ± 0.38
GCUCAGCAAUAUUACGGCUA | -0.707 ± 0.13 | -0.758 ± 0.12
GCUCAGCAAUAUUACGGGCG | -1.61 ± 0.071 | -1.22 ± 0.085
GCUCAGCAAUAUUACGGGGA | -0.491 ± 0.054 | 0.325 ± 0.075
GCUCAGCAAUAUUACGGUGA | -3.42 ± 0.25 | -1.69 ± 0.16
GCUCAGCAAUAUUACGUAGC | -1.23 ± 0.12 | -1.43 ± 0.16
GCUCAGCAAUAUUACGUCCC | -0.208 ± 0.24 | 0.272 ± 0.24
GCUCAGCAAUAUUACGUCGG | -2.71 ± 0.14 | -0.555 ± 0.15
GCUCAGCAAUAUUACGUCUA | -0.844 ± 0.1 | -0.494 ± 0.097
GCUCAGCAAUAUUACGUGGA | -1.91 ± 0.1 | -1.63 ± 0.12
GCUCAGCAAUAUUACGUUAA | -1.32 ± 0.17 | -1.28 ± 0.16
GCUGAGCAAUAUUACGAACG | -1.53 ± 0.18 | -1.12 ± 0.23
GCUGAGCAAUAUUACGAACU | -2.49 ± 0.33 | -0.576 ± 0.21
GCUGAGCAAUAUUACGAGUU | -2.73 ± 0.13 | -0.949 ± 0.12
GCUGAGCAAUAUUACGCAGG | -1.66 ± 0.13 | -1.56 ± 0.15
GCUGAGCAAUAUUACGCAGU | -4.98 ± 0.45 | -3.31 ± 0.34
GCUGAGCAAUAUUACGCCAG | -3.69 ± 0.25 | -2.73 ± 0.41
GCUGAGCAAUAUUACGCCGA | – | -1.38 ± 0.32
GCUGAGCAAUAUUACGCGAU | -2.78 ± 0.17 | -2.59 ± 0.25

Sequence | self-splicing fitness (ln) (30 °C) | self-splicing fitness (ln) (37 °C)
GCUGAGCAAUAUUACGCGGC | – | -1.22 ± 0.41
GCUGAGCAAUAUUACGCUAG | -3.28 ± 0.16 | -1.27 ± 0.14
GCUGAGCAAUAUUACGGAAA | -2.86 ± 0.25 | -2.63 ± 0.32
GCUGAGCAAUAUUACGGCCG | -3.94 ± 0.32 | -2.37 ± 0.39
GCUGAGCAAUAUUACGGGAU | -2.39 ± 0.14 | -1.34 ± 0.13
GCUGAGCAAUAUUACGGGCC | -2.39 ± 0.32 | -2.27 ± 0.39
GCUGAGCAAUAUUACGGGGC | -3.02 ± 0.24 | -3.85 ± 0.42
GCUGAGCAAUAUUACGUAGU | -2.86 ± 0.16 | -1.71 ± 0.15
GCUGAGCAAUAUUACGUAUC | -2.37 ± 0.13 | 0.164 ± 0.1
GCUGAGCAAUAUUACGUUCU | -0.944 ± 0.12 | -0.758 ± 0.15
GCUGAGCAAUAUUACGUUUU | -4.08 ± 0.26 | -3.21 ± 0.22
GCUUAGCAAUAUUACGAAAC | -1.22 ± 0.16 | -0.448 ± 0.24
GCUUAGCAAUAUUACGCACA | -1.02 ± 0.14 | 0.3 ± 0.15
GCUUAGCAAUAUUACGCACU | -0.857 ± 0.11 | 0.197 ± 0.12
GCUUAGCAAUAUUACGCAUA | -1.58 ± 0.14 | -0.612 ± 0.11
GCUUAGCAAUAUUACGCCGU | -2.31 ± 0.21 | -0.553 ± 0.18
GCUUAGCAAUAUUACGCCUU | -2.7 ± 0.21 | 0.179 ± 0.19
GCUUAGCAAUAUUACGCGCG | -0.0422 ± 0.094 | -0.149 ± 0.13
GCUUAGCAAUAUUACGCGUU | -0.427 ± 0.096 | 0.0522 ± 0.1
GCUUAGCAAUAUUACGGACA | -0.409 ± 0.13 | -1.15 ± 0.13
GCUUAGCAAUAUUACGGAGU | -2.9 ± 0.26 | -0.418 ± 0.19
GCUUAGCAAUAUUACGGGCU | -2.79 ± 0.21 | -3.26 ± 0.23
GCUUAGCAAUAUUACGGGUU | -1.95 ± 0.094 | -1.43 ± 0.14
GCUUAGCAAUAUUACGGUUA | -0.517 ± 0.11 | -0.548 ± 0.11

Sequence | self-splicing fitness (ln) (30 °C) | self-splicing fitness (ln) (37 °C)
GCUUAGCAAUAUUACGUCAA | -2.67 ± 0.26 | -1.66 ± 0.2
GCUUAGCAAUAUUACGUGAA | -0.117 ± 0.064 | 0.311 ± 0.074
GCUUAGCAAUAUUACGUGCU | -2.78 ± 0.19 | -1.41 ± 0.18
GCUUAGCAAUAUUACGUGUG | -1.91 ± 0.054 | -1.14 ± 0.066
GCUUAGCAAUAUUACGUUUA | -1.73 ± 0.13 | -1.17 ± 0.12
GGAAAGCAAUAUUACGACUA | -0.62 ± 0.12 | -0.129 ± 0.12
GGAAAGCAAUAUUACGACUC | 0.0221 ± 0.11 | -0.214 ± 0.19
GGAAAGCAAUAUUACGAUCU | -3.9 ± 0.42 | -1.68 ± 0.32
GGAAAGCAAUAUUACGAUGA | -1.68 ± 0.2 | -0.498 ± 0.2
GGAAAGCAAUAUUACGAUUC | -1.84 ± 0.16 | -0.276 ± 0.16
GGAAAGCAAUAUUACGCAAC | -3.25 ± 0.24 | -1.02 ± 0.23
GGAAAGCAAUAUUACGCCAA | -2.36 ± 0.41 | -0.527 ± 0.29
GGAAAGCAAUAUUACGCCGC | -2.48 ± 0.41 | -1.89 ± 0.49
GGAAAGCAAUAUUACGCUAC | -1.91 ± 0.26 | -1.86 ± 0.33
GGAAAGCAAUAUUACGGACA | -0.913 ± 0.092 | 0.104 ± 0.097
GGAAAGCAAUAUUACGGAGU | -3.76 ± 0.23 | -1.73 ± 0.18
GGAAAGCAAUAUUACGGCAA | -0.443 ± 0.12 | -0.141 ± 0.11
GGAAAGCAAUAUUACGGCGG | -2.47 ± 0.19 | -1.45 ± 0.2
GGAAAGCAAUAUUACGGCGU | -0.39 ± 0.071 | -0.31 ± 0.1
GGAAAGCAAUAUUACGGUGU | -2.29 ± 0.092 | -1.15 ± 0.12
GGAAAGCAAUAUUACGUAGG | -3.23 ± 0.12 | -2.23 ± 0.14
GGAAAGCAAUAUUACGUAUA | -2.2 ± 0.16 | -1.16 ± 0.18
GGAAAGCAAUAUUACGUGCC | -1.94 ± 0.19 | -2.01 ± 0.25
